These are literature values, as cited in publication PMC6289583.

For one series, the target named is ICAM-2 (Homo sapiens) (UniProt P13598).
The target of another series is EBP50 (Homo sapiens) (UniProt O14745). Description: SPR.
A further series deals with Moesin (UniProt P26038).
Chain of Moesin (P26038 2-577): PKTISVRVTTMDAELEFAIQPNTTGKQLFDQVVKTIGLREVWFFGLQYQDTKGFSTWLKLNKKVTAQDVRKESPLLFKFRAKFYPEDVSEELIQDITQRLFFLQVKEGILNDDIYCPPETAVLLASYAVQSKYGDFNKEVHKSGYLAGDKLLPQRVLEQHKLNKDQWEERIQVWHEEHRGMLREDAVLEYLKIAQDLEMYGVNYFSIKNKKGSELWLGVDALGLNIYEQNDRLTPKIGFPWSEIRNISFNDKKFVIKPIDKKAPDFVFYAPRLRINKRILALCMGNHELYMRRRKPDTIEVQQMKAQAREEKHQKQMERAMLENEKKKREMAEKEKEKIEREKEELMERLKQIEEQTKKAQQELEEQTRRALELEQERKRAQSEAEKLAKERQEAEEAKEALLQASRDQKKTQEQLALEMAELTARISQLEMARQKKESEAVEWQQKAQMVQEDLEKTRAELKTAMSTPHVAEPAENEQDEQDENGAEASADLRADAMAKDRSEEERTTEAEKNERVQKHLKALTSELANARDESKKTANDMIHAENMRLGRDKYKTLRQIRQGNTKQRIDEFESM

Chain of Ezrin (P15311 whole entry): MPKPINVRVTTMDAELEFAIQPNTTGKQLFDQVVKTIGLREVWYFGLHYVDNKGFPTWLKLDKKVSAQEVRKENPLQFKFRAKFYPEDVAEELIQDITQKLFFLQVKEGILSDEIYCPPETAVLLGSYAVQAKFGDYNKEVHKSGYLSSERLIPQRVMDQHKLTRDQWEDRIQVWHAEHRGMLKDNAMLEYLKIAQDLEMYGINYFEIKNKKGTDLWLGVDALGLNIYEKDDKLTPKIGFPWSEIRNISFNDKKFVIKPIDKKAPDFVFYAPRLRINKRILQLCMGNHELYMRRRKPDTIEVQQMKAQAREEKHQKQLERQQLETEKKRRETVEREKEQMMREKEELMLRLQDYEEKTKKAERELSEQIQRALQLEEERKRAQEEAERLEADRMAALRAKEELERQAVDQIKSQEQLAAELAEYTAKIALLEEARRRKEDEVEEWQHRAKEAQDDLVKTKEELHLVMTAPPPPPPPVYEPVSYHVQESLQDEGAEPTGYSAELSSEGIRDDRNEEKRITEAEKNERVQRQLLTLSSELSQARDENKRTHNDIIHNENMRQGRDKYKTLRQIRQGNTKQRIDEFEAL
Chain of ICAM-2 (Homo sapiens) (P13598 25-275): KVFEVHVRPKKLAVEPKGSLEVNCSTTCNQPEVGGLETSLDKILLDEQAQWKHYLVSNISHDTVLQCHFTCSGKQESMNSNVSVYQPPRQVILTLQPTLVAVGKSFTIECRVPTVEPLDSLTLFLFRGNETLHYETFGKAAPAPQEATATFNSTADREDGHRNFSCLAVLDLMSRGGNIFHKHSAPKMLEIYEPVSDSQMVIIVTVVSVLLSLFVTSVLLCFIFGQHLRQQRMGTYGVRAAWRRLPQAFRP
Chain of CD44 cytoplasmic domain (P16070 671-742): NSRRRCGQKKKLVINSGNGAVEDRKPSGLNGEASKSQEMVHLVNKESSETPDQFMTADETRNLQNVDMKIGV
Chain of EBP50 (Homo sapiens) (O14745 2-358): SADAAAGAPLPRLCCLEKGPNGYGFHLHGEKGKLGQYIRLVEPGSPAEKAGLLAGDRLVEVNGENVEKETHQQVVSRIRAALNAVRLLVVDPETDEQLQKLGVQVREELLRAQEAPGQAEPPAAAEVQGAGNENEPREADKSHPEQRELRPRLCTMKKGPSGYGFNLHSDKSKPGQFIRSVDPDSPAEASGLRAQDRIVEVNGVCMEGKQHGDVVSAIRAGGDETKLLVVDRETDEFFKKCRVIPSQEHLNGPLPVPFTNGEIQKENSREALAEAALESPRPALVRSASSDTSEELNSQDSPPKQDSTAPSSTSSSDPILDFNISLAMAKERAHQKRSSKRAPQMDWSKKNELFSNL

In the case of Ezrin (from UniProt P15311), the figures for the Kd in the series with ICAM-2 (Homo sapiens) and in the series with EBP50 (Homo sapiens) were 330 nM and 58 nM, respectively.

On to “CD44 cytoplasmic domain (from UniProt P16070)”, for which the Kd in the series with Moesin is 9.3 nM.
